Source: patent US11110115B2, “Nucleic acid molecule with anti-inflammatory and anti-coagulant and organ-protective properties” (APTAHEM AB, priority 2017, dated 2021)
“Also recorded” adds a separate entry of the source.

Legend:
[1] = LPS-induced mortality, survival assay; type: in vivo, C57BL/6 mice; conditions: 72 hours
Method: In this study, female C57BL/6 mice of 10-12 weeks old (Taconic Biosciences) were used. Animals had free access to autoclaved and acidified drinking water. Animals were housed under standard laboratory conditions, air conditioned and filtered with adequate fresh air supply. Animals were kept in a climate controlled environment.
Lipopolysaccharide (LPS) from E. coli (O111:B4) was diluted in PBS.
SEQ ID NO:2 was stored in powder form at 4° C. until use. Powder was added to saline and vortexed into solution to prepare SEQ ID NO:2 stock solution.
For all other groups, LPS was injected intraperitoneally at 10 mg/kg. Mice were intravenously injected 15 minutes and 60 minutes after LPS administration with SEQ ID NO:2 at concentrations of 10, 25, 50 and 100 mg/kg. Except group 6, which was intravenously injected once at 15 minutes and once at 120 minutes after LPS administration.
When high doses of LPS are administered, animals will suffer LPS-induced shock and mortality may be observed. For 72 hours after LPS injection, mice were checked for mortality several times each day. All surviving mice were euthanized at the end of the study (day 3).

[2] = Comparable ex vivo APTT study, canine
[3] = Expanded toxicology panel of serum in LPS-induced shock; type: in vivo, C57BL/6 mice; conditions: blood at Hour 28
Method: In this study, female C57BL/6 mice of 10-12 weeks old (Taconic Biosciences) were used. Animals had free access to autoclaved and acidified drinking water. Animals were housed under standard laboratory conditions, air conditioned and filtered with adequate fresh air supply. Animals were kept in a climate-controlled environment. Lipopolysaccharide (LPS) from E. coli (O111:B4) was diluted in PBS. SEQ ID NO:2 was stored in powder form at 4° C. until use. Powder was added to saline and vortexed into solution to prepare SEQ ID NO:2 stock solution. […] For all other groups, LPS was injected intraperitoneally at 10 mg/kg. Mice were intravenously injected 15 minutes and 60 minutes after LPS administration with SEQ ID NO:2 at concentrations of 10, 25, 50 and 100 mg/kg. […] Blood collected at Hour 28 was analyzed for expanded toxicology panel performed by IDEXX Laboratories, Inc. (N. Grafton, Mass.). We attempted to collect enough blood to run each analysis 5 times for each group. The extended toxicology analysis measured concentrations of AST, ALT, creatine kinase, albumin, total protein, BUN, cholesterol, glucose, phosphorus, triglycerides, HDL cholesterol, bile acid, LDL cholesterol, total bilirubin, GGT, bilirubin conjugated, and creatinine. Here, results are shown for AST, ALT, creatine kinase, albumin, total protein, BUN, cholesterol, phosphorus, triglycerides, cholesterol, and creatinine.

[4] = Comparable ex vivo APTT study, human
[5] = Tail bleeding model (bleeding time); type: in vivo, Sprague-Dawley rats; conditions: for group average bleeding time compared to matched vehicle group: SEQ ID NO:2 5, 20, 40 mg/kg i.v. 5 min before, Rivaroxaban 10 mg/kg PO 1 hour before, Warfarin 0.5 mg/kg IV
Method: A total of 36 Sprague-Dawley male and female rats were utilized and divided into six groups comprising of 6 animals per group. Animal handling was performed according to guidelines of the National Institute of Health and the Association for Assessment and Accreditation of Laboratory Animal Care. Animals were fed ad libitum a commercial rodent diet (Teklad Certified Global 18% Protein Diet cat #: 2018SC). Animals had free access to autoclaved and acidified drinking water (pH between 2.5 and 3.5) obtained from the municipality supply. Animals were housed under standard laboratory conditions, air conditioned and filtered with adequate fresh air supply. Animals were kept in a climate controlled environment.
SEQ ID NO:2 (Biospring) (100 mg) was dissolved in 5 ml saline to form a stock solution of 20 mg/ml. Vehicle (saline) was provided by Pharmaseed as ready to use for i.v. administration. Rivaroxaban (Bayer, Pharmaseed Ltd) dosing solution was diluted at 10 mg/kg (Group 2M). Warfarin (Ceriliant, Pharmaseed Ltd) was diluted at 0.5 mg/kg (Group 3M). Both Rivaroxaban and Warfarin are clinical standards with anticoagulation activity. To obtain SEQ ID NO:2 dosing solution (2.5 mg/ml) for dose level of 5 mg/kg and dose volume of 2 ml/kg for i.v. injection, 0.375 ml of the above 20 mg/ml stock solution was diluted with 2.625 ml of saline (Group 4M). To obtain SEQ ID NO:2 dosing solution (10 mg/ml) for dose level of 20 mg/kg and dose volume of 2 ml/kg for i.v. injection, 1.5 ml of the above 20 mg/ml stock solution was diluted with 1.5 ml saline (Group 5M). To obtain SEQ ID NO:2 dosing solution (20 mg/ml) for dose level of 40 mg/kg and dose volume of 2 ml/kg for i.v. injection, the above 20 mg/ml stock used (Group 6).
Rats were intravenously injected five minutes before bleeding time assay. […] Three treated groups received SEQ ID NO:2 at dose levels of 5, 20 and 40 mg/kg saline solution. In each gender, control groups received saline Vehicle. A positive control group received Rivaroxaban (10 mg/kg). Rivaroxaban was administered by oral gavage 1 hour before bleeding time assay. A second positive control groups received Warfarin (0.5 mg/kg).
Male and female rats were anaesthetized by intraperitoneal injection of ketamine/xylazine. Bleeding time was monitored as described in Stupnisek et al. (2012), until blood flow stopped for a complete 30-sec interval or till the end of 30 min period. In deeply anaesthetized rats (placed in ventral position) the tail was transected with a surgical scalpel 2 mm from the tip (and submerged into a tube with 40 ml of saline at room temperature in vertical position) and the duration and amount of bleeding was measured to evaluate the hemostatic effect of the agents or saline administration. Following the completion of bleeding time evaluation, all rats were immediately sacrificed by CO2 asphyxiation.
Numerical results were given as means±standard errors. If applicable, statistical analysis was carried out using one-way ANOVA followed by Dunnett's Multiple Comparison post Test. A probability of 5% (p≤0.05) was regarded as significant.

[6] = 50 mg/kg at 15 and 60 min after LPS
[7] = 50 mg/kg at 60 and 120 min after LPS
[8] = groups treated i.v. with SEQ ID NO:2 after LPS
[9] = overall, groups treated i.v. with SEQ ID NO:2

B1: SEQ ID NO:2: nucleic acid sequence of SEQ ID NO:1 in which each C and U is fluorinated to increase stability in plasma (nucleic acid)
chain: GGGAAUUCGAGCUCGGUACCAACAAUACGACUACACCAUCAAAAGUAUUAUCUUGCAUCGAAGGUUGGCACGUAGCAAGCUCUGCAGUCG
modifications: fluorinated C and U; (6)..(7) uracil is fluorinated; (8)..(8) cytosine is fluorinated; (12)..(12) cytosine is fluorinated; (13)..(13) uracil is fluorinated; (14)..(14) cytosine is fluorinated; (17)..(17) uracil is fluorinated; (19)..(20) cytosine is fluorinated; (23)..(23) cytosine is fluorinated; (26)..(26) uracil is fluorinated; (28)..(28) cytosine is fluorinated; (31)..(31) cytosine is fluorinated; (32)
**Q.** What does the source list for B1?
**A.** survival compared to vehicle treated mice ([1]; 25 mg/kg i.v. twice after LPS 10 mg/kg i.p.): significantly improved; survival compared to vehicle treated mice ([1]; 50 mg/kg i.v. twice after LPS 10 mg/kg i.p.): significantly improved; survival compared to vehicle treated mice ([1]; 100 mg/kg i.v. twice after LPS 10 mg/kg i.p.): significantly improved; positive effect on APTT [2]: confirmed; Cholesterol in serum ([3]; 25 mg/kg at 15 and 60 min after LPS): significant improvements; Cholesterol in serum [3, 6]: significant improvements; Creatinine in serum [3, 6]: significant improvements; Creatinine in serum [3, 7]: significant improvements; Triglycerides in serum [3, 7]: significant improvements; serum concentration of ALT compared to vehicle treated group [3, 8]: did not reach statistical significance; serum concentration of AST compared to vehicle treated group [3, 8]: improvements; also recorded: significantly improved; serum concentration of BUN compared to vehicle treated group [3, 8]: improvements; also recorded: significantly improved; serum concentration of creatine kinase compared to vehicle treated group [3, 8]: did not reach statistical significance; serum concentration of phosphorus compared to vehicle treated group [3, 8]: improvements; also recorded: significantly improved; serum concentration of cholesterol compared to vehicle treated group [3, 9]: significantly improved; serum concentration of creatinine compared to vehicle treated group [3, 9]: significantly improved; serum concentration of triglycerides compared to vehicle treated group [3, 9]: significantly improved; positive effect on APTT [4]: confirmed; anti-coagulation activity relative to clinical care standards (Rivaroxaban and Warfarin) ([5]; all doses (5, 20, 40 mg/kg i.v.), bleeding time): equivalent; group average bleeding time compared to matched vehicle group ([5]; female rats): increased significantly; dose response effect on bleeding time ([5]; male rats, 5, 20, 40 mg/kg i.v.): can be observed; group average bleeding time compared to matched vehicle group ([5]; male rats): increased significantly
